Data: patent US20110038869A1 (Genmab, published 2011)
Substitutions are numbered along the chain they refer to.

T1: full length CD32a on stably transfected IIA1.6 cells (human, UniProt P12318 34-317)
T1 construct: whole, on cells; also called IIA1.6-CD32a; CD32a-expressing IIA1.6 cells
T1 sequence (looked up): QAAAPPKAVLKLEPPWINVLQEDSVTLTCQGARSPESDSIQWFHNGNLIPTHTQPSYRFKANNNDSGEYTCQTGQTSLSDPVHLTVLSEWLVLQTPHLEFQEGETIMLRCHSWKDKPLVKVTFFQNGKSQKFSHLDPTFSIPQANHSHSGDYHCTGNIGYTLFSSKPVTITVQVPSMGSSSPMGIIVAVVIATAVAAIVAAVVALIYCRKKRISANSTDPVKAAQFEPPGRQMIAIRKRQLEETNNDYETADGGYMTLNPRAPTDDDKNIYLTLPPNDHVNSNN

T2: CD32bECDHis (human, UniProt P31994 43-223, limits assumed)
T2 construct: Produced in HEK-293F cells; also called extracellular domain of CD32b with C-terminal His tag; soluble CD32b
T2 sequence (looked up): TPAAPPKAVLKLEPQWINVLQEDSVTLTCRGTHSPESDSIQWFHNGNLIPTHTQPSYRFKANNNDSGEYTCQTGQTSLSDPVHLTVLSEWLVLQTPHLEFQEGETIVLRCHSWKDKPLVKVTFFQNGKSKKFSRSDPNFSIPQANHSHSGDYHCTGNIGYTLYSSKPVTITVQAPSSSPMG

T3: full length CD32b2 on transfected IIA1.6 cells (human, UniProt P31994-2 43-291)
T3 construct: whole, on cells; also called IIA1.6-CD32b2
T3 sequence (looked up): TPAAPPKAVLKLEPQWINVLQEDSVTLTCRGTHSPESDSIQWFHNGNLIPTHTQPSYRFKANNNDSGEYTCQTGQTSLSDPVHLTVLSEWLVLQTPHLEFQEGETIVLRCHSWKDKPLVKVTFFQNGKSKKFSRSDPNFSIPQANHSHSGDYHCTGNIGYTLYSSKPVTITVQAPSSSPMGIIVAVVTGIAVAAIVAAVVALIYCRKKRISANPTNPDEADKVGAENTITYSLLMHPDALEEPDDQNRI

B1: Antibody 024 (antibody, V domains shown)
VH: QVQLVQSGAEVKKPGASVKVSCKASGYTFTSYGLSWVRQAPGQGLEWMGWISPYNGNTHYAQKLQGRVTMTTDTSTSTAYMDLRSLRSDDTAVYYCARDSAAHGMDVWGQGTTVTVSS
VL: DIQMTQSPSSLSASVGDRVTITCRASQGISSWLAWYQQKPEKAPKSLIYAASSLQSGVPSRFSGSRSGTDFTLTISSLQPEDFATYYCQQYNSYPYTFGQGTKLEIKR
notes: also called HuMab 024
B2: Antibody 022 (antibody, V domains shown)
VH: B1 VH with Y80D, D99A
VL: B1 VL
notes: also called HuMab 022
B3: Antibody 026 (antibody, V domains shown)
VH: B1 VH with P53A, H59N
VL: B1 VL
notes: Human antibody; also called HuMab 026
B4: Antibody 028 (antibody, V domains shown)
VH: B1 VH with L4V, A24T, L34I, P53A, H59K, V68L, S77T, D82E, T115S
VL: B1 VL
notes: List 1 gives no VL for antibody 028; The VL is therefore uncertain; also called HuMab 028
B5: Antibody 020 (antibody, V domains shown)
VH: B1 VH with A9G, A24T, L34I, P53A, H59K, V68L, S77T, D82E
VL: B1 VL with S63R, R66G
notes: also called HuMab 020
B6: Antibody 038 (antibody, human IgG1, V domains shown)
VH: QVQLVESGGGVVQPGRSLRLSCAASGFTFSTYGMHWVRQAPGKGLEWVAVISHDGSDKYYADSVKGRFTISRDNSKNTLYLQMNSLRAEDTAVYYCARDQSIIETFDYWGQGTLVTVSS
VL: EIVLTQSPATLSLSPGERATLSCRASQSVSSYLAWYQQKPGQAPRLLIYDASNRATGIPARFSGSGSGTDFTLTISSLEPEDFAVYYCQQRSNWGFTFGPGTKVDIKR
notes: Human antibody; also called HuMab 038

molecular target: T1, full length CD32a on stably transfected …; test: flow cytometry on IIA1.6 cells expressing full length CD32a, PE anti-human IgG, MFI
Protocol: (§1) After harvesting and counting, IIA1.6 cells stably transfected with full length CD32a and CD32b (van den Herik-Oudijk et al., 1994), control IIA1.6 cells and Daudi-luc cells were resuspended in PBS (1×10⁶ cells/ml). Cells were put in 96-well V-bottom plates (100 μl/well) and washed twice with FACS buffer (PBS supplemented with 0.1% BSA and 0.02% Na-azide). Thereafter, 50 μl of serially diluted HuMab in FACS buffer was added to the cells and incubated for 30 minutes at 4° C. After washing three times with FACS buffer, 50 μl of phycoerythrin (PE)-conjugated rabbit anti-human IgG (Jackson ImmunoResearch Europe), diluted 1:200 in FACS buffer, was added. After 30 minutes at 4° C. (in the dark), cells were washed three times, and specific binding of the HuMabs was detected by flow cytometry on a FACSCalibur (BD Biosciences). […] Binding curves were analyzed using non-linear regression (sigmoidal dose-response with variable slope) using GraphPad Prism V4.03 software (GraphPad Software, San Diego, Calif., USA).

| binding result | Binder |
| --- | --- |
| no binding (tested: about 7e-8 M) | B1 |
| no binding (tested: about 7e-8 M) | B2 |
| no binding (tested: about 7e-8 M) | B3 |
| no binding (tested: about 7e-8 M) | B4 |
| no binding (tested: about 7e-8 M) | B5 |

molecular target: T2, CD32bECDHis; test: SPR BIAcore 3000, antibody immobilized, CD32bECDHis analyte
Protocol: Antibody binding to CD32a and CD32b was analyzed by surface plasmon resonance in a BIAcore 3000 (GE Healthcare). CD32aECDHis and CD32bECDHis derived from HEK293 cells were used for the analysis. HuMab antibodies were immobilized on the CM-5 sensor chip according to the procedure recommended by the manufacturer. Briefly, after surface activation by EDC and NHS HuMab antibody was injected over the activated CM-5 surface in 10 mM sodium-acetate, pH ranging from 4.0 to 5.5 at 5 μl/min. followed by 1 M Ethanolamine for deactivation. Concentration series of CD32bECDHis in HBS-EP buffer were injected over the immobilized antibodies at a flow rate of 30 μl/min for 180 sec. Regeneration of the HuMab surface was performed by injection of 10 mM Glycine-HCl pH 2.0 or 10 mM sodium acetate pH 3.0. […] Kinetic analysis is performed using double reference subtraction and model 1:1 (langmuir) binding analysis. Specificity was studied by injecting CD32aECDHis at a concentration of […] over immobilized HuMab and isotype control antibodies under the same conditions as for the CD32b measurements.

| Kd | koff | kon | Binder |
| --- | --- | --- | --- |
| 1 nM | 0.00156 s⁻¹ | 1.54e+06 M⁻¹ s⁻¹ | B6 |
| 0.9 nM | 0.00126 s⁻¹ | 1.44e+06 M⁻¹ s⁻¹ | B1 |
| 0.7 nM | 0.00103 s⁻¹ | 1.48e+06 M⁻¹ s⁻¹ | B2 |
| 1.3 nM | 0.00179 s⁻¹ | 1.4e+06 M⁻¹ s⁻¹ | B3 |
| 1.3 nM | 0.00199 s⁻¹ | 1.58e+06 M⁻¹ s⁻¹ | B4 |
| 2.4 nM | 0.00363 s⁻¹ | 1.54e+06 M⁻¹ s⁻¹ | B5 |

molecular target: T3, full length CD32b2 on transfected …; test: flow cytometry on IIA1.6-CD32b2 cells
Protocol: as §1
To analyze binding of anti-CD32b HuMabs to CD32b1 and CD32b2, IIA1.6 cells transfected with full length CD32b1 or CD32b2 (van den Herik-Oudijk et al., 1994) were prepared as described supra. The assay was performed as described supra. Flow cytometry was performed on a FACS Canto II (BD Biosciences).

| EC50 | Binder |
| --- | --- |
| 0.27 nM | B6 |
| 1.96 nM | B1 |
| 2.18 nM | B4 |

molecular target: T1, full length CD32a on stably transfected …; test: flow cytometry on IIA1.6-CD32a cells
Protocol: as §1

| EC50 | Binder |
| --- | --- |
| 3.48 nM | B6 |
